In patent publication US20220089722A1 (published 2022):

Columns and labels:
[1] = target: T1, hEGFR-6-his (SinoBiological) (human, UniProt P00533 25-645); assay: ELISA; printed value although curve is flat
[2] = target: T1, hEGFR-6-his (SinoBiological); assay: ELISA

Kd [1] | Kd [2] | Binder
161 pM | – | IgFD-7(anti-CD19/CD3) (bispecific antibody) chain 1: EVQLVESGGGLVQPGGSLRLSCAASGFTFNTYAMNWVRQAPGKGLEWVARIRSKYNNYATYYADSVKDRFTISRDDSKNTLYLQMNSLRAEDTAVYYCVRHGNFGNSYVSWFAYWGQGTLVTVSSASTKGPSVFPLAPSSKSTSGGTAALGCLVKDYFPEPVTVSWNSGALTSGVHTFPAVLQSSGLYSLSSVVTVPSSSLGTQTYICNVNHKPSNTKVDKKVEPKSCDKTHTCPPCPAPPVAGPSVFLFPPKPKDTLMISRTPEVTCVVVDVSHEDPEVKFNWYVDGVEVHNAKTKPREEQYNSTYRVVSVLTVLHQDWLNGKEYKCKVSNKGLPSSIEKTISKAKGQPREPQVYTLPPSRDELTKNQVSLTCLVKGFYPSDIAVEWESNGQPENNYKTTPPVLDSDGSFFLYSKLTVDKSRWQQGNVFSCSVMHEALHNHYTQKSLSLSPGK chain 2: QAVVTQEPSLTVSPGGTVTLTCRSSTGAVTTSNYANWVQQKPDHLFRGLIGGTNKRAPGTPARFSGSLLGDKAALTISGAQPEDEAEYYCALWYSNLWVFGGGTKLTVLKRTVAAPSVFIFPPSDEQLKSGTASVVCLLNNFYPREAKVQWKVDNALQSGNSQESVTEQDSKDSTYSLSSTLTLSKADYEKHKVYACEVTHQGLSSPVTKSFNRGECDKTHTCPPCPAPPVAGPSVFLFPPKPKDTLMISRTPEVTCVVVDVSHEDPEVKFNWYVDGVEVHNAKTKPREEQYNSTYRVVSVLTVLHQDWLNGKEYKCKVSNKGLPSSIEKTISKAKGQPREPQVYTLPPSRDELTKNQVSLTCLVKGFYPSDIAVEWESNGQPENNYKTTPPVLDSDGSFFLYSKLTVDKSRWQQGNVFSCSVMHEALHNHYTQKSLSLSPGKSGGGGSGGGGSGGGGSDIQMTQTTSSLSASLGDRVTISCRASQDISKYLNWYQQKPDGTVKLLIYHTSRLHSGVPSRFSGSGSGTDYSLTISNLEQEDIATYFCQQGNTLPYTFGGGTKLEITGGGGSGGGGSGGGGSEVKLQESGPGLVAPSQSLSVTCTVSGVSLPDYGVSWIRQPPRKGLEWLGVIWGSETTYYNSALKSRLTIIKDNSKSQVFLKMNSLQTDDTAIYYCAKHYYYGGSYAMDYWGQGTSVTVSS
– | 150 pM | IgFD-25(anti-CD3/EGFR) (bispecific antibody) chain 1: EVQLVESGGGLVQPGGSLRLSCAASGFTFNTYAMNWVRQAPGKGLEWVARIRSKYNNYATYYADSVKDRFTISRDDSKNTLYLQMNSLRAEDTAVYYCVRHGNFGNSYVSWFAYWGQGTLVTVSSASTKGPSVFPLAPSSKSTSGGTAALGCLVKDYFPEPVTVSWNSGALTSGVHTFPAVLQSSGLYSLSSVVTVPSSSLGTQTYICNVNHKPSNTKVDKKVEPKSCDKTHTCPPCPAPPVAGPSVFLFPPKPKDTLMISRTPEVTCVVVDVSHEDPEVKFNWYVDGVEVHNAKTKPREEQYNSTYRVVSVLTVLHQDWLNGKEYKCKVSNKGLPSSIEKTISKAKGQPREPQVYTLPPCRDELTKNQVSLWCLVKGFYPSDIAVEWESNGQPENNYKTTPPVLDSDGSFFLYSKLTVDKSRWQQGNVFSCSVMHEALHNHYTQKSLSLSPGK chain 2: QAVVTQEPSLTVSPGGTVTLTCRSSTGAVTTSNYANWVQQKPDHLFRGLIGGTNKRAPGTPARFSGSLLGDKAALTISGAQPEDEAEYYCALWYSNLWVFGGGTKLTVLKRTVAAPSVFIFPPSDEQLKSGTASVVCLLNNFYPREAKVQWKVDNALQSGNSQESVTEQDSKDSTYSLSSTLTLSKADYEKHKVYACEVTHQGLSSPVTKSFNRGECDKTHTCPPCPAPPVAGPSVFLFPPKPKDTLMISRTPEVTCVVVDVSHEDPEVKFNWYVDGVEVHNAKTKPREEQYNSTYRVVSVLTVLHQDWLNGKEYKCKVSNKGLPSSIEKTISKAKGQPREPQVCTLPPSRDELTKNQVSLSCAVKGFYPSDIAVEWESNGQPENNYKTTPPVLDSDGSFFLVSKLTVDKSRWQQGNVFSCSVMHEALHNHYTQKSLSLSPGKGGSGGSGGGGSGGGGSDIQMTQSPSSLSASVGDRVTITCQASQDISNYLNWYQQKPGKAPKLLIYDASNLETGVPSRFSGSGSGTDFTFTISSLQPEDIATYFCQHFDHLPLAFGGGTKVEIKGGGGSGGGGSGGGGSQVQLQESGPGLVKPSETLSLTCTVSGGSVSSGDYYWTWIRQSPGKGLEWIGHIYYSGNTNYNPSLKSRLTISIDTSKTQFSLKLSSVTAADTAIYYCVRDRVTGAFDIWGQGTMVTVSS
– | 161 pM | IgFD-31(anti-CD3/EGFR) (bispecific antibody) chain 1: EVQLVESGGGLVQPGGSLRLSCAASGFTFNTYAMNWVRQAPGKGLEWVARIRSKYNNYATYYADSVKDRFTISRDDSKNTLYLQMNSLRAEDTAVYYCVRHGNFGNSYVSWFAYWGQGTLVTVSSASTKGPSVFPLAPSSKSTSGGTAALGCLVKDYFPEPVTVSWNSGALTSGVHTFPAVLQSSGLYSLSSVVTVPSSSLGTQTYICNVNHKPSNTKVDKKVEPKSCGGSGAKLAALKAKLAALKGGGGSDKTHTCPPCPAPPVAGPSVFLFPPKPKDTLMISRTPEVTCVVVDVSHEDPEVKFNWYVDGVEVHNAKTKPREEQYNSTYRVVSVLTVLHQDWLNGKEYKCKVSNKGLPSSIEKTISKAKGQPREPQVYTLPPSRDELTKNQVSLTCLVKGFYPSDIAVEWESNGQPENNYKTTPPVLDSDGSFFLYSKLTVDKSRWQQGNVFSCSVMHEALHNHYTQKSLSLSPGK chain 2: QAVVTQEPSLTVSPGGTVTLTCRSSTGAVTTSNYANWVQQKPDHLFRGLIGGTNKRAPGTPARFSGSLLGDKAALTISGAQPEDEAEYYCALWYSNLWVFGGGTKLTVLKRTVAAPSVFIFPPSDEQLKSGTASVVCLLNNFYPREAKVQWKVDNALQSGNSQESVTEQDSKDSTYSLSSTLTLSKADYEKHKVYACEVTHQGLSSPVTKSFNRGECGGGGSELAALEAELAALEAGGSGDKTHTCPPCPAPPVAGPSVFLFPPKPKDTLMISRTPEVTCVVVDVSHEDPEVKFNWYVDGVEVHNAKTKPREEQYNSTYRVVSVLTVLHQDWLNGKEYKCKVSNKGLPSSIEKTISKAKGQPREPQVYTLPPSRDELTKNQVSLTCLVKGFYPSDIAVEWESNGQPENNYKTTPPVLDSDGSFFLYSKLTVDKSRWQQGNVFSCSVMHEALHNHYTQKSLSLSPGKGGSGGSGGGGSGGGGSDIQMTQSPSSLSASVGDRVTITCQASQDISNYLNWYQQKPGKAPKLLIYDASNLETGVPSRFSGSGSGTDFTFTISSLQPEDIATYFCQHFDHLPLAFGGGTKVEIKGGGGSGGGGSGGGGSQVQLQESGPGLVKPSETLSLTCTVSGGSVSSGDYYWTWIRQSPGKGLEWIGHIYYSGNTNYNPSLKSRLTISIDTSKTQFSLKLSSVTAADTAIYYCVRDRVTGAFDIWGQGTMVTVSS
– | 139 pM | IgFD-26(anti-CD3/EGFR) (bispecific antibody) chain 1: not shown chain 2: QAVVTQEPSLTVSPGGTVTLTCRSSTGAVTTSNYANWVQQKPDHLFRGLIGGTNKRAPGTPARFSGSLLGDKAALTISGAQPEDEAEYYCALWYSNLWVFGGGTKLTVLKRTVAAPSVFIFPPSDEQLKSGTASVVCLLNNFYPREAKVQWKVDNALQSGNSQESVTEQDSKDSTYSLSSTLTLSKADYEKHKVYACEVTHQGLSSPVTKSFNRGECDKTHTCPPCPAPELLGGPSVFLFPPKPKDTLMISRTPEVTCVVVDVSHEDPEVKFNWYVDGVEVHNAKTKPREEQYASTYRVVSVLTVLHQDWLNGKEYKCKVSNKALPAPIEKTISKAKGQPREPQVCTLPPSREEMTKNQVSLSCAVKGFYPSDIAVEWESNGQPENNYKTTPPVLDSDGSFFLVSKLTVDKSRWQQGNVFSCSVMHEALHNHYTQKSLSLSPGKGGSGGSGGGGSGGGGSDIQMTQSPSSLSASVGDRVTITCQASQDISNYLNWYQQKPGKAPKLLIYDASNLETGVPSRFSGSGSGTDFTFTISSLQPEDIATYFCQHFDHLPLAFGGGTKVEIKGGGGSGGGGSGGGGSQVQLQESGPGLVKPSETLSLTCTVSGGSVSSGDYYWTWIRQSPGKGLEWIGHIYYSGNTNYNPSLKSRLTISIDTSKTQFSLKLSSVTAADTAIYYCVRDRVTGAFDIWGQGTMVTVSS
